Holding throughout (assay): SPR
Background: Surface plasmon resonance follows binding to a sensor surface in real time, without labels.

Data set [1] has as its system HuR (ELAVL1). Particulars: HuR alone; SPR: HBS-EP buffer, Biacore T200 SA chip, 1:1 fit. UV crosslinking/EMSA: 2x RNA-binding buffer listed as 5 mM HEPES, 25 mM KCl, 2 mM MgCl2, 2 mM DTT, 0.1 mM …. In general terms: Mobility shift assays separate free from complexed probe on a gel.
Data set [2] deals with La (lupus antigen, SSB);HuR (ELAVL1). Particulars: equimolar La and HuR, same total protein; 1:1 fit; SPR: HBS-EP buffer, Biacore T200 SA chip, 1:1 fit. UV crosslinking/EMSA: 2x RNA-binding buffer listed as 5 mM HEPES, 25 mM KCl, 2 mM MgCl2, 2 mM DTT, 0.1 mM ….
For data set [3], the system named is La (lupus antigen, SSB). Particulars: SPR: HBS-EP buffer, Biacore T200 SA chip, 1:1 fit. UV crosslinking/EMSA: 2x RNA-binding buffer listed as 5 mM HEPES, 25 mM KCl, 2 mM MgCl2, 2 mM DTT, 0.1 mM ….

Take PDCD4 3'UTR full length: the Kd came out at 42.7 nM in data set [1]; 10.5 nM in data set [2]; 27 nM in data set [3] (La alone, first experiment); 22 nM in data set [3] (La alone, second experiment); 27.5 nM in data set [3] (equimolar mix with HuR triple mutant (non-binding), same total protein).

By Kd is commonly meant a measure of binding affinity in units of concentration.
